Assay [1] deals with peptidase domain (PD) of Pipistrellus abramus angiotensin-converting enzyme 2 (ACE2) (Pipistrellus abramus) (UniProt C7ECT9). Nature of the assay: BLI. (In general: BLI is a label-free optical method that tracks binding on a fibre tip over time.)
Assay [2] has as its target peptidase domain (PD) of Pitta sordida ACE2 (Pitta sordida). Nature of the assay: BLI.

As for “RBD of BtPa-BetaCoV/GD2013 (GenBank accession: AIA62343.1) (domain or fragment)”, the Kd in assay [1] amounted to 0.0234 µM; in assay [2], 0.138 µM.

Usually Kd stands for the free concentration of one partner at which half of the binding sites on the other are occupied at equilibrium, for simple one-to-one binding. Higher therefore signals a looser complex.

The values are drawn from PMC12678408.
